Common to all, as to assay: SEC; preparative HiLoad 16/600 Superdex 200 pg (120 ml), 20 mM HEPES, 50 mM NaCl pH 7.5; elution at ~85 ml compared with protein standards (~60 kDa)
A general note: SEC sorts molecules by how far they enter the pores of the column.

Assay [1] has as its target gfasPurple (Galaxea fascicularis).
Assay [2] has as its target amilCP (Acropora millepora).
In assay [3] the target is eforRed (Echinopora forsaliana).
The target in assay [4] is spisPink (Stylophora pistillata).

In general, stoichiometry N refers to a count of units in the complex or per binding partner. gfasPurple (natural protein): the stoichiometry N in assay [1] was 2. In assay [2], amilCP (natural protein) had a stoichiometry N of 2.

As for eforRed (natural protein), the stoichiometry N in assay [3] stood at 2.

In assay [4], spisPink (natural protein) showed a stoichiometry N of 2.

Values taken from article PMC9063845.
